{
  "source": "patent US20120045437A1",
  "about": "(BOARD OF REGENTS OF THE UNIVERSITY OF OKLAHOMA, published 2012)",
  "key": {"[1]": {"molecular_target": "endogenous bovine LRP6 (bovine)", "test": "cell-based or functional assay"}, "endogenous human LRP6": {"molecular_target": "endogenous human LRP6 (human, UniProt O75581 20-1613)", "sequence (O75581 20-1613 limits assumed)": "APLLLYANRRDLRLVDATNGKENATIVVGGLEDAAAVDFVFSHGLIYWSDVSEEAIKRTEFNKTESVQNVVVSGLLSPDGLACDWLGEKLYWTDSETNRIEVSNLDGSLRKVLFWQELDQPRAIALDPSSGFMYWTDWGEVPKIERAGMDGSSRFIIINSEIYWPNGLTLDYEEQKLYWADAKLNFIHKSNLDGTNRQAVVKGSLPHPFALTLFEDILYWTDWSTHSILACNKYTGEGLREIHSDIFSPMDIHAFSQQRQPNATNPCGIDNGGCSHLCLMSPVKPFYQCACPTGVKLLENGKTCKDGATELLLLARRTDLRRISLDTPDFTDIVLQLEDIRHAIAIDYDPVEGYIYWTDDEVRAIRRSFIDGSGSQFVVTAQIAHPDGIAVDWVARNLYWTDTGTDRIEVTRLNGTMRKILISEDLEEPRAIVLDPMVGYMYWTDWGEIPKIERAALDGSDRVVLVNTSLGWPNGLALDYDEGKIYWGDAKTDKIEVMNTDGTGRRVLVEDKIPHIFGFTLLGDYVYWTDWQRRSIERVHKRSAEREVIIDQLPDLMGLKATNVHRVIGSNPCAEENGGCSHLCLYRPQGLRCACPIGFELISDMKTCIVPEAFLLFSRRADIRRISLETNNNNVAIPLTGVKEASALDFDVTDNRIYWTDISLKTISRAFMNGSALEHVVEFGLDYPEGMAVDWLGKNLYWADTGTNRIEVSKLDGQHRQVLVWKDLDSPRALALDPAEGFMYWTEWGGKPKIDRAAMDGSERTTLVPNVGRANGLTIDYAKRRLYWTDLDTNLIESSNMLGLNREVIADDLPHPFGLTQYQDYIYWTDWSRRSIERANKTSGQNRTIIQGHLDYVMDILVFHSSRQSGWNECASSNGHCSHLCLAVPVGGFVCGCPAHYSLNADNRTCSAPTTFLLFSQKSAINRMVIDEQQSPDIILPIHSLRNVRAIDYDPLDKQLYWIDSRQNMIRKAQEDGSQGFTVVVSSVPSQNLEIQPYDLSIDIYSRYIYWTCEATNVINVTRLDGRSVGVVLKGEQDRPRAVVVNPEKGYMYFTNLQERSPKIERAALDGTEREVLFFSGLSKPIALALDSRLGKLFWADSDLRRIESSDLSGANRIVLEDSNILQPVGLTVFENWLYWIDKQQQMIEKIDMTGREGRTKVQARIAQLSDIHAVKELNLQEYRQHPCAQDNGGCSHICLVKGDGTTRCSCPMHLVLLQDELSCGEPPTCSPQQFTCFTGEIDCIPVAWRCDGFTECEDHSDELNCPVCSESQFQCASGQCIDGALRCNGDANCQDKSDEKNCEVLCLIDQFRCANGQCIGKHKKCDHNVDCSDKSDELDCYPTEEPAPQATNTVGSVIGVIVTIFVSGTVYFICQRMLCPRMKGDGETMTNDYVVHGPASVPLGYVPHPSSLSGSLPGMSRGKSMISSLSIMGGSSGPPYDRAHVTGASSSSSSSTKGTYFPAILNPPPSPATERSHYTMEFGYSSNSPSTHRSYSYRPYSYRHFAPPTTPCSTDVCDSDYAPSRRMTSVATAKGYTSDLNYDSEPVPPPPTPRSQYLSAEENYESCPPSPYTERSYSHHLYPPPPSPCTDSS", "test": "cell-based or functional assay"}, "endogenous mouse LRP6": {"molecular_target": "T1, endogenous mouse LRP6 (mouse, UniProt O88572 20-1613)", "T1 construct": "whole, on cells; Tested as total cell lysate (Western blot) and in mouse retinal cryosections (immunostaining); also called LRP6 (mouse)", "T1 sequence (O88572 20-1613)": "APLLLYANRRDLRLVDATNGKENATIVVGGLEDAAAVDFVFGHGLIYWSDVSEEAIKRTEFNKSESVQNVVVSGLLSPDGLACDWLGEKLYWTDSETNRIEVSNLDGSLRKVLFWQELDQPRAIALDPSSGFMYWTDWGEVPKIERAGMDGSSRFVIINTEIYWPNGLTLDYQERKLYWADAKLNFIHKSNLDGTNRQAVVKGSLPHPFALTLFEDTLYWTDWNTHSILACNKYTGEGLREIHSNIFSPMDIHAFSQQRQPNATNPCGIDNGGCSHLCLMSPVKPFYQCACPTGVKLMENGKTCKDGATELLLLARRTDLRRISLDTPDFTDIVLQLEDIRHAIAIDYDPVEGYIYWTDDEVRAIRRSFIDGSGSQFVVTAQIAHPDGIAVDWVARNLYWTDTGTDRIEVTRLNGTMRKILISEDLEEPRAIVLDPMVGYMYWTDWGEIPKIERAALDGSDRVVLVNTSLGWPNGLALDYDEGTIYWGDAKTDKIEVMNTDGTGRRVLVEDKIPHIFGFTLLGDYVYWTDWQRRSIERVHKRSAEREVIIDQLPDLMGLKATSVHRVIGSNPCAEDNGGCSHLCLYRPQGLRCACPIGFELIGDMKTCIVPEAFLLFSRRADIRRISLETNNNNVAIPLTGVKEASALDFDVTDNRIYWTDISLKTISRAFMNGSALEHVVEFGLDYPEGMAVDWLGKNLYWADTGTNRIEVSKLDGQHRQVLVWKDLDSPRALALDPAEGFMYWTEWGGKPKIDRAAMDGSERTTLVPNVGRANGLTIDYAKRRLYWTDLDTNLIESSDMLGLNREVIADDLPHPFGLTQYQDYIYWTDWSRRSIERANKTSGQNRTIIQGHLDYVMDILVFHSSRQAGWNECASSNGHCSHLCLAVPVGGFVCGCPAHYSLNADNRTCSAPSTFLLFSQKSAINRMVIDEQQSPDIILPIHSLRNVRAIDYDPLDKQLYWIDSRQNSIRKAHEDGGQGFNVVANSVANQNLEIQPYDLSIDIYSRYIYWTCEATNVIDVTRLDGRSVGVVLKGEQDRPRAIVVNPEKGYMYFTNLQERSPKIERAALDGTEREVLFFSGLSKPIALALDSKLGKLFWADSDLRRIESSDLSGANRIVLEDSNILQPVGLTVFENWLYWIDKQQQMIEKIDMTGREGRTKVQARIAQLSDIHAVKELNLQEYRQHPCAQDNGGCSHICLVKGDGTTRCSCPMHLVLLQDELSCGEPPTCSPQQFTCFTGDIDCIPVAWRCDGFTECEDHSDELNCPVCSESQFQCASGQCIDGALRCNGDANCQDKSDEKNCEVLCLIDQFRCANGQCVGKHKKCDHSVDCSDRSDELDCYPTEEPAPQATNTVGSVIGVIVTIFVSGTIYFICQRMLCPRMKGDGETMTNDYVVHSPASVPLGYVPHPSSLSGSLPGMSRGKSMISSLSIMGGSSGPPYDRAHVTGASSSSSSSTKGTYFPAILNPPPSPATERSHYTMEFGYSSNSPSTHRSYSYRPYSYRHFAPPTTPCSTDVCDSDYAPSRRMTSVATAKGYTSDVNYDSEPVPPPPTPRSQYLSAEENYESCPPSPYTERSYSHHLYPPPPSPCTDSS", "test": "Western blot, total cell lysates", "protocol": "(§1) A: HEK-293T cells were separately transfected with plasmids expressing LRP5-Flag and LRP6-Myc, with an empty vector as control. Forty-eight hours post-transfection, total cell lysates (50 μg) were applied for Western blot analysis using Anti-LRP6-1 and an anti-Flag antibody (M2). B: The ability of Anti-LRP6-1 to recognize endogenous LRP6 in different species. Total cell lysates (50 μg) from each cell line were applied for Western blot analysis using Anti-LRP6-1. C: Conditioned media containing LDLRN-Myc, LRP5N-Myc and LRP6N-Myc, and purified recombinant peptides of VLDLR-N-His, LRP6E1E2-His and LRP6E3E4-His were loaded for Western blot analysis using Anti-LRP6-1, anti-His and anti-Myc antibodies. D: Immuno-localization of LRP6 in the retinal cryosections. FITC-labeled Anti-LRP6-1 was used to determine the cellular localization of LRP6 in the retinas of rats (D1-D6) and mice (D7-D12). Non-specific mouse IgG was labeled with FITC and used as a negative control (D1, D4, D7, D10). The sections were stained with FITC-Anti-LRP6-1 (D2, D5, D8, D11). FITC-Anti-LRP6-1 pre-absorbed with 10 μg/ml purified LRP6E1E2-His antigen was used for staining to confirm the specificity of the immunosignals of LRP6 (D3, D6, D9, D12). […]"}, "VLDLR-N-His": {"molecular_target": "T2, VLDLR-N-His (human, UniProt P98155 28-797, limits assumed)", "T2 construct": "domain: VLDLR-N; also called very low-density lipoprotein receptor; not shown: 6x histidine tag", "test": "Western blot, recombinant VLDLR-N-His", "protocol": "(§2) FIG. 15 illustrates specificity of Anti-LRP6-1 on LRP6 ectodomain. A: HEK-293T cells were separately transfected with plasmids expressing LRP5-Flag and LRP6-Myc, with an empty vector as control. Forty-eight hours post-transfection, total cell lysates (50 μg) were applied for Western blot analysis using Anti-LRP6-1 and an anti-Flag antibody (M2). B: The ability of Anti-LRP6-1 to recognize endogenous LRP6 in different species. Total cell lysates (50 μg) from each cell line were applied for Western blot analysis using Anti-LRP6-1. C: Conditioned media containing LDLRN-Myc, LRP5N-Myc and LRP6N-Myc, and purified recombinant peptides of VLDLR-N-His, LRP6E1E2-His and LRP6E3E4-His were loaded for Western blot analysis using Anti-LRP6-1, anti-His and anti-Myc antibodies. D: Immuno-localization of LRP6 in the retinal cryosections. FITC-labeled Anti-LRP6-1 was used to determine the cellular localization of LRP6 in the retinas of rats (D1-D6) and mice (D7-D12). Non-specific mouse IgG was labeled with FITC and used as a negative control (D1, D4, D7, D10). The sections were stained with FITC-Anti-LRP6-1 (D2, D5, D8, D11). FITC-Anti-LRP6-1 pre-absorbed with 10 μg/ml purified LRP6E1E2-His antigen was used for staining to confirm the specificity of the immunosignals of LRP6 (D3, D6, D9, D12)."}, "LRP6E3E4-His": {"molecular_target": "T3, LRP6E3E4-His (human, UniProt O75581 631-1244)", "T3 construct": "Expressed in E. coli BL21(DE3); Only its E3E4 part stood in the assay; also called E3E4 domain of LRP6; not shown: His tag from pET28b+", "T3 sequence": "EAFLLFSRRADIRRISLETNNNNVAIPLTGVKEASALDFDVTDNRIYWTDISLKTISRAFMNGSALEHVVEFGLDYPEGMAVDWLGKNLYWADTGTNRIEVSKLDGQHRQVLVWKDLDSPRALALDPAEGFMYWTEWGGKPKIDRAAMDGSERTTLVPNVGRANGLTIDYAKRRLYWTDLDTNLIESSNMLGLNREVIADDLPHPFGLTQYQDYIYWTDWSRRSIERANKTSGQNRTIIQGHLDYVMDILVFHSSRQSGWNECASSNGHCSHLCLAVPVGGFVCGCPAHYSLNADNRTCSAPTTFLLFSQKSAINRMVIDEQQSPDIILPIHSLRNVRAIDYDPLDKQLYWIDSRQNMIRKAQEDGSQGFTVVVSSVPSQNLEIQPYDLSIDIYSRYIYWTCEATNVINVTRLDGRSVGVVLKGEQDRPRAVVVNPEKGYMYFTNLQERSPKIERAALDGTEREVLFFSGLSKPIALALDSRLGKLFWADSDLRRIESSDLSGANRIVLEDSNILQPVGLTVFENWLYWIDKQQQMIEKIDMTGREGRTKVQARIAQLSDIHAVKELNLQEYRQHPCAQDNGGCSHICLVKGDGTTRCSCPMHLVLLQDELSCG", "test": "Western blot, purified recombinant fragment", "protocol": "as §2"}, "[2]": {"molecular_target": "T4, LRP5-Flag (human full-length LRP5) (human, UniProt O75197 32-1615)", "T4 construct": "Tested as total lysate of transfected HEK-293T cells in a Western blot; not shown: Flag tag", "T4 sequence (O75197 32-1615 limits assumed)": "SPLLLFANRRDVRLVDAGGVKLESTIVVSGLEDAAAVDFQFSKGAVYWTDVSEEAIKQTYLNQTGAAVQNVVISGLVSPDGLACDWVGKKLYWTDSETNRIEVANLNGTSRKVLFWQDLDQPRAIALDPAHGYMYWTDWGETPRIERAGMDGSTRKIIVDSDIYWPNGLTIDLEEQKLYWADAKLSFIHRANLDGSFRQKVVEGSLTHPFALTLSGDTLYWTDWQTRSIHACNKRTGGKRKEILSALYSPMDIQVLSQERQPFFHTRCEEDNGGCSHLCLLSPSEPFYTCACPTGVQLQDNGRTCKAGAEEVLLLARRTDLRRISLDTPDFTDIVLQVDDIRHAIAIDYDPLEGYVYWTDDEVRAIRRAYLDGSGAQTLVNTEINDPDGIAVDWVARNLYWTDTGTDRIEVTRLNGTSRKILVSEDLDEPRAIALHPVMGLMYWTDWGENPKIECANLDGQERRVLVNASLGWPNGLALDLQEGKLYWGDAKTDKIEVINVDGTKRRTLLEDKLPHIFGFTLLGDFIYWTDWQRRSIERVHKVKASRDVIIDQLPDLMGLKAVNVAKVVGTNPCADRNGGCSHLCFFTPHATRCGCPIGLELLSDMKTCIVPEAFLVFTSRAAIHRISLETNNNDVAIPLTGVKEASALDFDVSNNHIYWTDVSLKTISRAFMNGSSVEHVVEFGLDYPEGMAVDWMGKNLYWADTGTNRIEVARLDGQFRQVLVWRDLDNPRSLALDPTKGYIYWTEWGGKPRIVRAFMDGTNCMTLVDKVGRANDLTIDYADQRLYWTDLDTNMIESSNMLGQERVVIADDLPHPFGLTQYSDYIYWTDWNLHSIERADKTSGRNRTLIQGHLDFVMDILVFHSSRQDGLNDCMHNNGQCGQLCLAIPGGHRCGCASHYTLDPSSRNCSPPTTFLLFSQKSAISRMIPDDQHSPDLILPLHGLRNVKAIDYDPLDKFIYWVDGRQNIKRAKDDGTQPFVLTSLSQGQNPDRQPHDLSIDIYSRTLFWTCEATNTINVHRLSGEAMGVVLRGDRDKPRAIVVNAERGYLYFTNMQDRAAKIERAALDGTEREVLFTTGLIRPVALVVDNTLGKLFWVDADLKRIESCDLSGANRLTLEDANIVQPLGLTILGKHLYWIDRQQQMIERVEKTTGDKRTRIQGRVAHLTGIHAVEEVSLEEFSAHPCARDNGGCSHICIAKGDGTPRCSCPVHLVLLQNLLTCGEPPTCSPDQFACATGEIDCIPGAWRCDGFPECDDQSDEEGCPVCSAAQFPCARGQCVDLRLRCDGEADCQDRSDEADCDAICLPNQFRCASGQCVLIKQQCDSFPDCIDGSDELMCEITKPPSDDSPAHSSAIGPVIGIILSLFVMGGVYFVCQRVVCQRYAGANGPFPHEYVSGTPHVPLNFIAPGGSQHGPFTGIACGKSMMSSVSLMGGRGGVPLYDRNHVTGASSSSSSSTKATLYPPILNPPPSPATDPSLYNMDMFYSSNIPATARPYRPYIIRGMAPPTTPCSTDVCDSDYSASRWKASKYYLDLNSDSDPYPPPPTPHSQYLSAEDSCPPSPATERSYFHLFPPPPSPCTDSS", "test": "Western blot, total lysates (50 ug) of transfected HEK-293T cells", "protocol": "as §1"}},
  "data": [
    {"binder": "Anti-LRP6-1 (antibody, mouse IgG2, V domains shown, also called mAb2F1; 2F1) VH: EVQLVESGGGLVQSKGSLKLSCAASGFTFNTYAMNWVRQAPGKGLEWVGRIRSKYNNYVTYYGDSVKDRFTISRDDSQSMLYLQMNNLKTEDTAMYYCVRQGRGSYAMDYWGQGTSVTVSS VL: NIVMTQSPKSMSMSVGERVTLSCKASENVGTYVSWYQQKPEQSPKLLIYGASNRYTGVPDRFIGSGSATDFTLTIRSVQAEDLADYHCGQSYSYPTFGAGTKLELKR", "values": [
      {"measurement": "IC50 of inhibition of LRP6 phosphorylation (Wnt3a-containing medium, RCEC, Western blot)", "setting": "[1]", "result": "210 to 440", "unit": "nM"},
      {"measurement": "IC50 of inhibition of [14C]thymidine incorporation into RCEC (proliferation, 1% O2)", "setting": "[1]", "result": "500 to 2000", "unit": "nM"},
      {"measurement": "EC50 of inhibition of Wnt1-induced TOPFLASH activity (hTERT-RPE cells)", "setting": "endogenous human LRP6", "result": "~20", "unit": "µg/mL"},
      {"measurement": "EC50 of suppression of Wnt3A-induced Luciferase activity (TOPFLASH, hTERT-RPE cells)", "setting": "endogenous human LRP6", "result": "~20", "unit": "µg/mL"},
      {"measurement": "binding result", "setting": "endogenous mouse LRP6", "result": "binds"},
      {"measurement": "binding result", "setting": "VLDLR-N-His", "result": "no binding"},
      {"measurement": "binding result", "setting": "LRP6E3E4-His", "result": "no binding"},
      {"measurement": "binding result", "setting": "[2]", "result": "no binding"}
    ]}
  ]
}
